Results from patent US6436901B1, “Pharmaceutical compositions” (UCP Gen-Pharma AG, priority 1994, dated 2002).

Assay: RP-HPLC of hirudin in water (FIG. 1)
Format: physicochemical
Description: RP-HPLC method: A LiChroCART 125-4 column is used (Merck LiChrospher 100 RP-18 5 μm). Solvent A is 0.5% ammoniumacetate in acetonitrile/water (10:90), (v:v); solvent B is 0.5% ammoniumacetate in acetonitrile/water (25:75). The elution is performed at 45° C. using a flow rate of 0.5 ml/min. The binary elution is a linear gradient starting at time zero with 23% solvent B and reaching 46% solvent B after 24 minutes. After 2 min at 70% solvent B the column is equilibrated for 7 min at 23% solvent B.
A typical chromatogram of recombinant hirudin HV1 (CGP 39393) in water using the RP-HPLC (1 mg/ml hirudin) method is shown in FIG. 1.
In FIG. 1 the relative area of the main peak is 95.15%. […] The changes which occur can be accelerated by using temperature stress experiments i.e. by storage at elevated temperatures.

hirudin
relative area of the main peak (in water, 1 mg/ml hirudin, typical chromatogram FIG. 1, no storage stress): 95.15% | stability on storage in water (storage in water at room temperature): increase of by products with time
